The results in this text go back to FireProtDB (doi:10.1021/bi034132r).

For this series the following is noted: Saccharomyces cerevisiae (strain ATCC 204508 / S288c), pH 7, 25 °C, GdnHCl, CD, phosphate 0.1 M, reversible: yes.

Where “and” joins values, the source holds several entries; their conditions need not be identical. Equal entries are not always repeated.

Sequence of Cytochrome c isoform 1 H39Y, P00044 (P00044 whole entry H39Y, canonical isoform): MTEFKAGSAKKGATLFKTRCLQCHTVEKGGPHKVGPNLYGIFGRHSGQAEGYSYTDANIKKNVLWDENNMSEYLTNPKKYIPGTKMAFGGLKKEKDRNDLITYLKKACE
Sequence of Cytochrome c isoform 1 wild type, P00044 (P00044 whole entry, canonical isoform): as the sequence (P00044 whole entry H39Y, canonical isoform) above, with Y39H counted along it
Sequence of Cytochrome c isoform 1 H32Y, P00044 (P00044 whole entry H32Y, canonical isoform): as the sequence (P00044 whole entry H39Y, canonical isoform) above, with H32Y, Y39H counted along it

With Cytochrome c isoform 1 H32Y, P00044, for the setting “structure 1YCC”, the “ddG of mutation (higher = less stable)” value is 1.82 kcal/mol and 2.1 kcal/mol; the denaturant m value was 2.41 kcal/mol/M and 2.39 kcal/mol/M; the “denaturant midpoint (higher = more stable)” value (“denaturant midpoint” below) was 1.4 M and 1.1 M; the unfolding free energy was 3.54 kcal/mol and 3.2 kcal/mol.

Consider Cytochrome c isoform 1 H39Y, P00044, for which, under “structure 1YCC”, the “ddG of mutation (higher = less stable)” value is 0.6 kcal/mol, the denaturant m value was 2.87 kcal/mol/M, the “denaturant midpoint” value amounted to 1.6 M and the unfolding free energy came out at 4.71 kcal/mol.

In the case of “Cytochrome c isoform 1 wild type, P00044”, the denaturant m value is 2.96 kcal/mol/M and 2.94 kcal/mol/M; the “denaturant midpoint” value was 1.8 M; the unfolding free energy is 5.35 kcal/mol and 5.31 kcal/mol.
